The values that follow come from patent US20150231203A1 (UTI LIMITED PARTNERSHIP, published 2015).

No end group written: not given here.

Sequences and labels used below:
B1: human biotin-Cav3.2 1569-1586 short III-IV linker peptide (peptide, UniProt O95180-2 1569-1586, looked up)
peptide: EARRREEKRLRRLERRRR
modifications: also: biotin, position not given here
notes: range 1569-1586; Synthetic peptide lacking the PY motif; also called hCav3.21569-1586; 18 amino acid short peptide lacking the PY motif
B2: USP5 (mouse, endogenous, from brain, DRG or dorsal horn lysate) (enzyme, UniProt P56399 2-858, looked up)
chain: AELSEEALLSVLPTIRVPKAGDRVHKDECAFSFDTPESEGGLYICMNTFLGFGKQYVERHFNKTGQRVYLHLRRTRRPKEEDTSAGTGDPPRKKPTRLAIGVEGGFDLTEDKFEFDEDVKIVILPDYLEIARDGLGGLPDIVRDRVTSAVEALLSADSASRKQEVQAWDGEVRQVSKHAFNLKQLDNPARIPPCGWKCSKCDMRENLWLNLTDGSILCGRRYFDGSGGNNHAVEHYRETGYPLAVKLGTITPDGADVYSYDEDDMVLDPSLAEHLSHFGIDMLKMQKTDKTMTELEIDMNQRIGEWELIQESGVPLKPLFGPGYTGIRNLGNSCYLNSVVQVLFSIPDFQRKYVDKLEKIFQNAPTDPTQDFSTQVAKLGHGLLSGEYSKPALESGDGEQVPEQKEVQDGIAPRMFKALIGKGHPEFSTNRQQDAQEFFLHLINMVERNCRSSENPNEVFRFLVEEKIKCLATEKVKYTQRVDYIMQLPVPMDAALNKEELLEYEEKKRQAEEEKVPLPELVRAQVPFSSCLEAYGAPEQVDDFWSTALQAKSVAVKTTRFASFPDYLVIQIKKFTFGLDWVPKKLDVSIEMPEELDISQLRGTGLQPGEEELPDIAPPLVTPDEPKGSLGFYGNEDEDSFCSPHFSSPTSPMLDESVIIQLVEMGFPMDACRKAVYYTGNSGAEAAMNWVMSHMDDPDFANPLILPGSSGPGSTSAAADPPPEDCVTTIVSMGFSRDQALKALRATNNSLERAVDWIFSHIDDLDAEAAMDISEGRSAAESISESVPVGPKVRDGPGKYQLFAFISHMGTSTMCGHYVCHIKKEGRWVIYNDQKVCASEKPPKDLGYIYFYQRVVS
B3: biotin-Tat-3.2 III-IV 1569-1589 linker peptide (peptide)
peptide: YGRKKRRQRRREARRREEKRLRRLERRRRKAQ
modifications: not fully specified (N-terminus); also: biotin, position not given here
notes: also called biotinylated Cav3.21569-1589 III-IV linker peptide; Tat-Cav3.21569-1589 III-IV linker peptide
B4: Tat-Cav3.2 1569-1589 III-IV linker peptide (non-biotinylated) (peptide)
peptide: B3 peptide
notes: also called Tat-3.2-III-IV1569-1589 linker; Tat-3.2-III-IV
B5: human biotin-Cav3.2 1556-1602 III-IV linker peptide (peptide, UniProt O95180-2 1556-1602, looked up)
peptide: ENFHKCRQHQEAEEARRREEKRLRRLERRRRKAQRRPYYADYSPTRR-biotin
modifications: not fully specified
notes: Synthetic peptide containing the PY motif; also called long III-IV linker
B6: human biotin-Cav3.2 1860-1884 C-terminus peptide (peptide, UniProt O95180-2 1860-1884, looked up)
peptide: SNKEAREDAELDAEIELEMAQGPGS-biotin
modifications: not fully specified
notes: Control peptide; also called hCav3.21860-1884 (CT); Cav3.2 C-terminus peptide

In assay [1] the target is T1, WWP1 (mouse, endogenous, from DRG lysate) (mouse, UniProt Q8BZZ3 1-918).
T1 construct: also called HECT E3 ligase WWP1
Nature of the assay: affinity precipitation from mouse DRG lysate with biotinylated peptide, western blot for WWP1.

Assay [2] concerns the target Cav3.2 channel (mouse, endogenous full-length channel from DRG, brain or dorsal horn) (mouse, UniProt O88427 1-2365, limits assumed). Kind of assay: cell-based or functional assay.
For assay [3], the target named is B2. Nature of the assay: affinity precipitation from mouse brain lysate with biotinylated Tat peptide (25 µg), western blot for USP5. (In general: A western blot detects proteins with antibodies after separation by electrophoresis.)
Assay [4] addresses B2. Kind of assay: in vitro competition by affinity precipitation from mouse brain lysate; competitor 50 µg against biotin-Tat peptide 25 µg.
Assay [5] deals with T2, recombinant human USP5 long isoform (human, UniProt P45974 1-858).
T2 construct: Purified recombinant protein bought from EnzoLifeSciences; also called hUSP5 long; USP5 long isoform (858 amino acids)
T2 sequence: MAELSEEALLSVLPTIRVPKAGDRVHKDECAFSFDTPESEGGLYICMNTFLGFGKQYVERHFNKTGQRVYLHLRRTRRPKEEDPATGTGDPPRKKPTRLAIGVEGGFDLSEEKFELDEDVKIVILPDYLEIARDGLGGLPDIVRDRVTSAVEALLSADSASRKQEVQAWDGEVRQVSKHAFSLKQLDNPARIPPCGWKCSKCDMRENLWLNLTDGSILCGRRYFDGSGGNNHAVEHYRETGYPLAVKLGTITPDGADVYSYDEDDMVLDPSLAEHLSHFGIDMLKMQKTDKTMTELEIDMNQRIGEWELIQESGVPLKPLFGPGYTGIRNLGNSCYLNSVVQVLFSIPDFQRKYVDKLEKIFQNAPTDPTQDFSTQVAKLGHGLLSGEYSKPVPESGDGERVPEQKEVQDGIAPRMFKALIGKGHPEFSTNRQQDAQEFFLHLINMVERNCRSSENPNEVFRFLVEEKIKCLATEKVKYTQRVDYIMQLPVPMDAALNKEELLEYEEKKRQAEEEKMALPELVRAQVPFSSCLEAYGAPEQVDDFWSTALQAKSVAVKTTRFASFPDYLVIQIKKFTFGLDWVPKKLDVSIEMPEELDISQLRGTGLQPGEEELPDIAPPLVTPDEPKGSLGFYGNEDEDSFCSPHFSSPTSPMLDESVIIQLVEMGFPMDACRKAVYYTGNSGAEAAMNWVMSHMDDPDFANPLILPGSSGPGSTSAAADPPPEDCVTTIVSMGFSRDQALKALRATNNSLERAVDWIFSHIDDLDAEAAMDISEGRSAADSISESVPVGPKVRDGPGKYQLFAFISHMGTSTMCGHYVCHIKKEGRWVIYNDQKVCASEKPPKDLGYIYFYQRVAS
Nature of the assay: in vitro binding assay of purified recombinant USP5 to biotinylated peptide, western blot.

Assay [6] has as its target T3, recombinant human USP5 short isoform (human, UniProt P45974-2 1-835).
T3 construct: Purified recombinant protein bought from EnzoLifeSciences; also called hUSP5 short; USP5 short isoform (835 amino acids)
T3 sequence (looked up): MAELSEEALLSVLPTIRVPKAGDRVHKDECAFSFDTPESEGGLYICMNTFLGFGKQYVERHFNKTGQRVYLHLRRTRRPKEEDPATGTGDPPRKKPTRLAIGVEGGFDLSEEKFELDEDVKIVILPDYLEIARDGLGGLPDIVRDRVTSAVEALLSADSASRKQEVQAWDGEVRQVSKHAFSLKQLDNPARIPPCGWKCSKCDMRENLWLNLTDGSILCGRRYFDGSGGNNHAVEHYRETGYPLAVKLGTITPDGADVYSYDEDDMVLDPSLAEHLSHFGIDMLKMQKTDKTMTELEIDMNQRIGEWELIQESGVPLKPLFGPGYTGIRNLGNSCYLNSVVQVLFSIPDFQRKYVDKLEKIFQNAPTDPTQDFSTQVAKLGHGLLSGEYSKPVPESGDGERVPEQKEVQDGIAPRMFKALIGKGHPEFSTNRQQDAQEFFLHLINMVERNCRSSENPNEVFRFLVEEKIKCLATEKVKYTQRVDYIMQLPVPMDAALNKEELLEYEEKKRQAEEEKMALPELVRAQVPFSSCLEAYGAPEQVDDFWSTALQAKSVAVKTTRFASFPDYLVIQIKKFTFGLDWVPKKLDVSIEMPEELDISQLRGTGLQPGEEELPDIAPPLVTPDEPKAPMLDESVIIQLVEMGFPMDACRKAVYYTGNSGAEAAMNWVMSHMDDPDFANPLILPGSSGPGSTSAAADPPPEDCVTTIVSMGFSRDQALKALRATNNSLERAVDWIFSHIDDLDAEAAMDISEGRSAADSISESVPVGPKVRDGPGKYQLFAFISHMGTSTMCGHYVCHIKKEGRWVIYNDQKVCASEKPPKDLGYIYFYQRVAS
The description is as above.

Assay [7] addresses B2. Nature of the assay: affinity precipitation from mouse brain lysate with biotinylated peptide, western blot for USP5.

Chain of Cav3.2 channel (mouse, endogenous full-length channel from DRG, brain or dorsal horn) (O88427 whole entry): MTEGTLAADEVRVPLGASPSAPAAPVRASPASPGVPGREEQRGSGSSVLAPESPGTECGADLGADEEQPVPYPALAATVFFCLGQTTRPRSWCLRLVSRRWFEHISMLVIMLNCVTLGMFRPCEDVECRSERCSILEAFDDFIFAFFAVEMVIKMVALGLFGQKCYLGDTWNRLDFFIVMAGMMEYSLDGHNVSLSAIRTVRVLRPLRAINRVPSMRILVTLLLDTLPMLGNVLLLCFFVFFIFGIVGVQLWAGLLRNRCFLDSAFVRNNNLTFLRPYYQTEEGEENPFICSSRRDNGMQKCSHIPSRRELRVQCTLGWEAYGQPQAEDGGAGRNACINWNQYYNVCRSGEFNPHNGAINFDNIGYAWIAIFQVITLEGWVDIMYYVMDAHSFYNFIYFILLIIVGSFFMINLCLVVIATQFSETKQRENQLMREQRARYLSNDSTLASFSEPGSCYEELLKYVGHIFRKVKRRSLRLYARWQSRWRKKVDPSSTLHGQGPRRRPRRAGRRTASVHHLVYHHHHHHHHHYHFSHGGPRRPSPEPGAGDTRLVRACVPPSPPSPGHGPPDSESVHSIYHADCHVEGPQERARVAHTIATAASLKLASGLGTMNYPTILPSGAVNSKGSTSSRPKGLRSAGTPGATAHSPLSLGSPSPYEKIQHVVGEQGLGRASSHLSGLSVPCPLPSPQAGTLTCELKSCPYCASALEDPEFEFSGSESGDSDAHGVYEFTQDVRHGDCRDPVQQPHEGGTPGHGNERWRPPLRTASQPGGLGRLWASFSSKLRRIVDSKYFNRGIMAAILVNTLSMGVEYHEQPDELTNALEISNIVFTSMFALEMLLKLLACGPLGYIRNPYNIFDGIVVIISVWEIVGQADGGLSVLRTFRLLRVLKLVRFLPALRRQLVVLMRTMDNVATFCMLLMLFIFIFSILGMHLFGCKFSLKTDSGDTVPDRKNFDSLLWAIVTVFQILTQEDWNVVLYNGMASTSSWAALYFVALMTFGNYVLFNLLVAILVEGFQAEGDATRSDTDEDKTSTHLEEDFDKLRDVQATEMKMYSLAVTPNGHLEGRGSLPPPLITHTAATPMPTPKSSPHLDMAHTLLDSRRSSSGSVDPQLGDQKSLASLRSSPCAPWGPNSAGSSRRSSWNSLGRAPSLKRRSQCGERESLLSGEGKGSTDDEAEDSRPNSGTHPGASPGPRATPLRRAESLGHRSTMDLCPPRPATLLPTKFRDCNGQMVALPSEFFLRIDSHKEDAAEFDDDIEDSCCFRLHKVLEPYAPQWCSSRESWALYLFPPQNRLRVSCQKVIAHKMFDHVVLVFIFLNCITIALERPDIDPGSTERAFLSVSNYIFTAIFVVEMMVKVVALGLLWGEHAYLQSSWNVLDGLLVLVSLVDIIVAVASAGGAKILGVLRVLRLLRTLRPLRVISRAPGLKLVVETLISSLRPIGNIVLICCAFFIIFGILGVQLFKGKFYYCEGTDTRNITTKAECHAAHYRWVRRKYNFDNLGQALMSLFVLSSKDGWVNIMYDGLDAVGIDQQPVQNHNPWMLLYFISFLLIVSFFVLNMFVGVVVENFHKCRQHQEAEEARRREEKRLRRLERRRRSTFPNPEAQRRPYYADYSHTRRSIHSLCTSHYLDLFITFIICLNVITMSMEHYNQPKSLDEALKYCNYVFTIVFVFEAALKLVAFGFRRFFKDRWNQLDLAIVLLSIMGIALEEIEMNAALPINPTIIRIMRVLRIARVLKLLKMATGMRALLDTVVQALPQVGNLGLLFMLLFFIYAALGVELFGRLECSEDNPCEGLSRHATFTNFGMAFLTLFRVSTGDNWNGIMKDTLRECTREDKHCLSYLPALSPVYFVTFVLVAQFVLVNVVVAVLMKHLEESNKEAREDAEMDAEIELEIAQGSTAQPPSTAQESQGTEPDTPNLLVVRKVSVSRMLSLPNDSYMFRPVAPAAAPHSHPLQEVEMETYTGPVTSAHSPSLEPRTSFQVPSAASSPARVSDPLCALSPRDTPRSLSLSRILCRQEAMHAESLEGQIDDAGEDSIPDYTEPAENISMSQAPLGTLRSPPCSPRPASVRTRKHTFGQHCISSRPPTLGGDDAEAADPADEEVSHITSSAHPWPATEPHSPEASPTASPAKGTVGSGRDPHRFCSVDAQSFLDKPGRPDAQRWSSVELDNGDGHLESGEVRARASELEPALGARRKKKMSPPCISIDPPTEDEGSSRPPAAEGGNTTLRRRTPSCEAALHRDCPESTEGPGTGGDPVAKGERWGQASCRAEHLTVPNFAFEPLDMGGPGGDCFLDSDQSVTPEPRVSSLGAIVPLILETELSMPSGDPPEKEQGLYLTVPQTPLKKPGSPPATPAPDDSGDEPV

Turning to B1, the binding result in assay [1] was “binds”.

As to B2, the “channel ubiquitination of Cav3.2 immunoprecipitates from CAD cells transfected with USP5-shRNA against USP15-shRNA” value in assay [2] was roughly 5 fold.

In the case of B3, the binding result in assay [3] is recorded as “binds”.

For the molecule B4, the binding result in assay [4] is on record as “binds”.

B5: the binding result in assay [5], in assay [6], in assay [1] and in assay [7] was “binds” throughout.

As for B6, the binding result in assay [5], in assay [6] and in assay [7] was “no binding” throughout.
